Positions count from the first letter of the chain named.
B1: 475 (protein)
chain: LDNGLARTPTMGWLHWERFMCNLDCQEEPDSCISEKLFMEMAERMVSEGWKDAGYEYLCIDDCWMAPQRDSEGRLQADPQRFPHGIRQLANYVHSKGLKLGIYADVGNKTCAGFPGSFGYYDIDAQTFADWGVDLLKFDGCYCDSLENLADGYKHMSLALNRTGRSIVYSCEWPLYMWPFQKPNYTEIRQYCNHWRNFADIDDSWKSIKSILDWTSFNQERIVDVAGPGGWNDPDMLVIGNFGLSWNQQVTQMALWAIMAAPLFMSNDLRHISPQAKALLQDKDVIAINQDPLGKQGYQLRQGDNFEVWERPLSGLAWAVAMINRQEIGGPRSYTIAVASLGKGVACNPACFITQLLPVKRKLGFYEWTSRLRSHINPTGTVLLQLENDMQMSLKDLL
modifications: Synthetic Polypeptide sequence of Variant No. 475 of mature Human GLA
B2: 477 (protein)
chain: B1 chain with L384W, D389T
modifications: Synthetic Polypeptide sequence of Variant No. 477 of mature Human GLA
B3: 476 (protein)
chain: B1 chain with D389T, M390E
modifications: Synthetic Polypeptide sequence of Variant No. 476 of mature Human GLA
B4: 470 (protein)
chain: LDNGLARTPTMGWLHWERFMCNLDCQEEPDSCISEKLFMEMAERMVSEGWKDAGYEYLCIDDCWMAPQRDSEGRLQADPQRFPHGIRQLANYVHSKGLKLGIYADVGNKTCAGFPGSFGYYDIDAQTFADWGVDLLKFDGCYCDSLENLADGYKHMSLALNRTGRSIVYSCEWPLYMWPFQKPNYTEIRQYCNHWRNFADIDDSWKSIKSILDWTSRNQERIVDVAGPGGWNDPDMLVIGNFGLSWDQQVTQMALWAIMAAPLFMSNDLRHISPQAKALLQDKDVIAINQDPLGKQGYQLRKGDNFEVWERPLSGDAWAVAIINRQEIGGPRSYTIPVASLGKGVACNPACFITQLLPVKRQLGFYNWTSRLKSHINPTGTVLLQLENTMQRSLKDLL
modifications: Synthetic Polypeptide sequence of Variant No. 470 of mature Human GLA
B5: 369 (protein)
chain: B4 chain with R44S, R392M
modifications: Synthetic Polypeptide sequence of Variant No. 369 of mature Human GLA
B6: 473 (protein)
chain: B4 chain with R392L
modifications: Synthetic Polypeptide sequence of Variant No. 473 of mature Human GLA
B7: 471 (protein)
chain: B4 chain with T389W, R392M
modifications: Synthetic Polypeptide sequence of Variant No. 471 of mature Human GLA
B8: 474 (protein)
chain: B4 chain with L386F, R392M
modifications: Synthetic Polypeptide sequence of Variant No. 474 of mature Human GLA
B9: 472 (protein)
chain: B4 chain with R392K
modifications: Synthetic Polypeptide sequence of Variant No. 472 of mature Human GLA

Tests used:
Assay type in all cases: biochemical
[1] = HTP-analysis of yeast culture supernatants, no challenge (MUGal hydrolysis); conditions: activity of the variant/activity of Rd4BB (SEQ ID NO: 15)
Procedure, shortened: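 Activity read as 4-methylumbelliferyl α-D-galactopyranoside hydrolysis: fluorescence (355/448 nm) after sodium carbonate stop, following 30-180 min at 37° C with 2 mM MUGal stock at pH 4.6–4.8. Enzyme source is unchallenged culture supernatant of INVSc1 yeast expressing GLA variants, grown 66-84 h at 30° C.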

[2] = HTP-analysis of supernatants pretreated with acid (MUGal hydrolysis); conditions: activity of the variant/activity of Rd4BB (SEQ ID NO: 15); challenge at pH 3.7
Procedure, shortened: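 GLA variants were secreted from INVSc1 yeast grown 66-84 h at 30° C. in SD-Ura with 2% glucose; supernatants were mixed with McIlvaine buffer pH 3.3-4.3 and held at 37° C. for 1-3 h. Residual activity on MUGal at pH 4.8 was then measured by fluorescence.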

[3] = HTP-analysis of supernatants pretreated with base (MUGal hydrolysis); conditions: activity of the variant/activity of Rd4BB (SEQ ID NO: 15); challenge at pH 9.65
Procedure, shortened: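 Fluorescence of released 4-MU (Ex 355 nm, Em 448 nm) after carbonate quench reports MUGal hydrolysis by GLA variants secreted from INVSc1 yeast. Before the acidic (pH 4.3-4.8) 30-180 min reaction at 37° C, supernatants had been pre-incubated at pH 7.0-9.7 for 1-18 h at 37° C.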

| Molecule | Relative Activity of GLA Variants After No Challenge (NC) [1] | Relative Activity of GLA Variants After Challenge at pH 3.7 [2] | Relative Activity of GLA Variants After Challenge at pH 9.65 [3] |
| --- | --- | --- | --- |
| B1 | + (0.5 to 1.5 relative activity over Rd4BB (SEQ ID NO: 15)) | + (0.5 to 1.5 relative activity over Rd4BB (SEQ ID NO: 15)) | + (0.5 to 1.5 relative activity over Rd4BB (SEQ ID NO: 15)) |
| B2 | + (0.5 to 1.5 relative activity over Rd4BB (SEQ ID NO: 15)) | − (<0.5 relative activity over Rd4BB (SEQ ID NO: 15)) | + (0.5 to 1.5 relative activity over Rd4BB (SEQ ID NO: 15)) |
| B3 | + (0.5 to 1.5 relative activity over Rd4BB (SEQ ID NO: 15)) | + (0.5 to 1.5 relative activity over Rd4BB (SEQ ID NO: 15)) | + (0.5 to 1.5 relative activity over Rd4BB (SEQ ID NO: 15)) |
| B4 | + (0.5 to 1.5 relative activity over Rd4BB (SEQ ID NO: 15)) | ++ (>1.5 to 2.5 relative activity over Rd4BB (SEQ ID NO: 15)) | + (0.5 to 1.5 relative activity over Rd4BB (SEQ ID NO: 15)) |
| B5 | + (0.5 to 1.5 relative activity over Rd4BB (SEQ ID NO: 15)) | + (0.5 to 1.5 relative activity over Rd4BB (SEQ ID NO: 15)) | − (<0.5 relative activity over Rd4BB (SEQ ID NO: 15)) |
| B6 | + (0.5 to 1.5 relative activity over Rd4BB (SEQ ID NO: 15)) | + (0.5 to 1.5 relative activity over Rd4BB (SEQ ID NO: 15)) | + (0.5 to 1.5 relative activity over Rd4BB (SEQ ID NO: 15)) |
| B7 | + (0.5 to 1.5 relative activity over Rd4BB (SEQ ID NO: 15)) | + (0.5 to 1.5 relative activity over Rd4BB (SEQ ID NO: 15)) | + (0.5 to 1.5 relative activity over Rd4BB (SEQ ID NO: 15)) |
| B8 | + (0.5 to 1.5 relative activity over Rd4BB (SEQ ID NO: 15)) | ++ (>1.5 to 2.5 relative activity over Rd4BB (SEQ ID NO: 15)) | + (0.5 to 1.5 relative activity over Rd4BB (SEQ ID NO: 15)) |
| B9 | + (0.5 to 1.5 relative activity over Rd4BB (SEQ ID NO: 15)) | + (0.5 to 1.5 relative activity over Rd4BB (SEQ ID NO: 15)) | + (0.5 to 1.5 relative activity over Rd4BB (SEQ ID NO: 15)) |
